# Measured values reported in patent US9085632B2, “Biological materials and uses thereof” (PEPTINNOVATE LIMITED, priority 2008, dated 2015).
# Entries after “also recorded” stand apart in the source; their conditions may differ. Read-outs that look alike come from different tables or passages of the source.
# What was measured:
# [1] = tested on: ovalbumin challenged mice; settings: previously demonstrated, Riffo-Vasquez et al. 2004; cited from earlier work
# UV-treated rats = test: Ultra Violet Burn-induced hyperalgesia; assay type: in vivo, male Wistar rats; settings: compared to the group treated with ibuprofen; FIGS. 16 and 17
# Experimental: (§1) The effect of Cpn60.1 has been investigated in 2 models of pain, Complete Freund's Adjuvant (CFA)-induced hyperalgesia and Ultra Violet Burn-induced hyperalgesia. Mechanical hyperalgesia was measured using Von Frey filaments applied with increasing force to the hind paw. Thermal hyperalgesia was measured using the time taken to withdraw the hind paw from a heat source. Cpn60.1 (50 & 500 μg/kg) was chronically administered to male Wistar rats (200 g) subcutaneously for 7 days. Every alternate day behavioural responses to mechanical and thermal allodynia were recorded. After baseline recordings, CFA was injected in to the hind paw to induce hyperalgesia and behavioural tests were performed. […] Another model of hyperalgesia was tested, this time using UV burn to induce allodynia. Again, Cpn60.1 had little effect at inhibiting hyperalgesia compared to the group treated with ibuprofen (FIGS. 16 and 17).
# [2] = tested on: co-culture of dendritic cells and RD11.10 T cells; test: IL4 release in dendritic cell / T cell co-culture; assay type: cell-based, mice; settings: DC pre-treated 10 μg/ml 24 h; […]; FIG. 7
# Experimental: (§2) Bone marrow cells from Balb/c mice were collected and cultured for 6 days in complete Dulbecco's Modified Eagle Medium containing 8 ng/ml of mouse GM-CSF. On day 6 of culture, the cells were collected, re-plated for 1 hour for removal of adherent cells, washed and plated at […] in 6-wells plates for analysis of surface markers expression and transference experiments and at 10^5 cells/well in 96-wells plate for cytokine measurements. In other experiments, cells were incubated at 10^6 cells/well for 24 h with the chaperonins and then another further 24 h with LPS (10 ng/ml).
# DC pre-treated with Cpn60.1 (10 μg/ml) or Cpn10 (10 μg/ml) for 24 h suppressed the release of IL4 from RD11.10 T cells in a DC/T cell co-culture. After 6 days of culture, cells were stimulated with anti-CD3 and anti-CD28 for further 24 hours and supernatants collected. IL5 and IL10 were not detected in this culture (FIG. 7).
# [3] = tested on: ovalbumin challenged mice; assay type: in vivo; settings: 24 h after repeated ovalbumin challenge, 10 μg intra-tracheal
# Experimental: Allergic inflammation in the lung is induced by 2 intraperitoneal injections of 10 μg of ovalbumin (OVA) in 1 mg of alum with 7 days interval between them. Control animals receive alum only. On day 14, all animals are exposed to an aerosol of OVA for 25 minutes, once a day for 3 consecutive days. All measurements are performed 24 h after the last antigen challenge. […]
# [4] = tested on: bone marrow dendritic cells; test: LPS-induced IL12 production by dendritic cells after chaperonin pre-incubation; assay type: cell-based, Balb/c mice; settings: pre-incubation 24 hours, then LPS (10 ng/ml) further 24 h; FIG. 6
# Experimental: as §2
# Pre-incubation of DC's with Cpn60.1 but not Cpn10 for 24 hours inhibited IL12 production induced by LPS (FIG. 6).
# [5] = tested on: human peripheral blood monocytes; test: Human monocyte assay, TNF-alpha secretion (ELISA); assay type: cell-based
# Experimental: We have established a human monocyte assay to compare the efficacy of Cpn60.1 and various peptide sequences of this protein. Human monocytes were obtained by density-dependent centrifugation from peripheral venus blood from healthy volunteers. Monocytes were then isolated and purified with cells adjusted to a density of 2×10^6 cells/ml which were incubated for 1 hour 30 minutes. The plates were then washed twice with Hanks solution. 0.9 ml of RPMI medium was then added to each well followed by polymyxin-B (5 μg/ml). 30 minutes later, 0.1 ml of Cpn at 0.0001-1000 ng/ml or peptides were added to the wells. Cells were then incubated at 37° C., 5% CO2 for 1 hour. The medium was removed and cells washed. 0.9 ml of medium was added to each well followed by 0.1 ml of LPS (1 ng/ml) and left to incubate for 24 hours. Supernatant was taken from each well and frozen for Enzyme Linked Immunosorbent Assay (ELISA).
# [6] = tested on: ovalbumin challenged mice; assay type: in vivo; settings: for recruitment of total cells to the airways / recruitment of eosinophils to the airways: intra-nasal; for recruitment of total cells to the airways: Cpn60.1 1 μg, FIG. 10; for recruitment of eosinophils to the airways: Cpn60.1 0.1 and 1 μg, peptide 4 0.005 μg, FIG. 11
# [7] = tested on: spleen cells collected from TLR4KO mice; test: IL-12 release in spleen cells from TLR4KO mice; assay type: cell-based; settings: FIG. 9
# [8] = tested on: bone marrow dendritic cells; test: IL-12 production by bone marrow dendritic cells pulsed with chaperonins; assay type: cell-based, Balb/c mice; settings: 48 h; Cpn60.1 0.1-30 μg/ml, Cpn10 10 μg/ml; FIG. 5
# Experimental: as §2
# LPS-treated mice = test: LPS-induced neutrophil recruitment to the lung (non-allergic inflammation); assay type: in vivo, Female Balb/c mice
# Experimental: Female Balb/c mice were pre-treated intranasally with Cpn60.1 (1 μg/ml) for 3 days in the absence or following pre-treatment with polymyxin B (5 μg/ml) to rule out any effect of LPS contamination. 30 minutes after the last dose of Cpn60.1, mice were treated with LPS (1 μg/ml). Neutrophil influx and TNF-alpha release in the lungs were determined by bronchoalveolar lavage 24 hours later.
# [9] = tested on: spleen cells of C57Bl/6 mice; assay type: cell-based, C57BI/6 mice; settings: 0.001-30 μg/ml, 24 h, polymixin B 5 μg/ml; FIG. 8
# CFA-treated rats = test: Complete Freund's Adjuvant (CFA)-induced hyperalgesia; assay type: in vivo, male Wistar rats; settings: 50 & 500 μg/kg subcutaneously for 7 days; compared to ibuprofen 100 mg/kg; FIGS. 14 and 15
# Experimental: as §1
# [10] = tested on: spleen cells from TLR2KO mice; test: IL-12 release in spleen cells from TLR2KO mice; assay type: cell-based; settings: FIG. 9
molecule,measurement,setting,value
"Cpn60.1: chaperonin protein Chaperonin 60.1 of Mycobacterium tuberculosis, amino acid sequence shown in FIG. 25 (protein) MSKLIEYDETARRAMEVGMDKLADTVRVTLGPRGRHVVLAKAFGGPTVTNDGVTVAREIELEDPFEDLGAQLVKSVATKTNDVAGDGTTTATILAQALIKGGLRLVAAGVNPIALGVGIGKAADAVSEALLASATPVSGKTGIAQVATVSSRDEQIGDLVGEAMSKVGHDGVVSVEESSTLGTELEFTEGIGFDKGFLSAYFVTDFDNQQAVLEDALILLHQDKISSLPDLLPLLEKVAGTGKPLLIVAEDVEGEALATLVVNAIRKTLKAVAVKGPYFGDRRKAFLEDLAVVTGGQVVNPDAGMVLREVGLEVLGSARRVVVSKDDTVIVDGGGTAEAVANRAKHLRAEIDKSDSDWDREKLGERLAKLAGGVAVIKVGAATETALKERKESVEDAVAAAKAAVEEGIVPGGGASLIHQARKALTELRASLTGDEVLGVDVFSEALAAPLFWIAANAGLDGSVVVNKVSELPAGHGLNVNTLSYGDLAADGVIDPVKVTRSAVLNASSVARMVLTTETVVVDKPAKAEDHDHHHGHAH",lung inflammation in a murine model of asthma,[1],suppressed
same,UV burn-induced hyperalgesia (mechanical and thermal),UV-treated rats,little effect
same,levels of IL4 in DC/T cell co-culture,[2],suppressed
same,bronchial hyper-responsiveness to methacholine,[3]; FIG. 2,reduced; also recorded: significantly inhibit
same,levels of cytokines in BAL fluid (cytokine release in the lung),[3]; FIG. 3,inhibited; also recorded: significantly inhibit
same,recruitment of eosinophils to the airways (airways inflammation),"[3]; percentage of eosinophils vs ovalbumin alone, FIG. 1",inhibited; also recorded: significantly inhibit
same,IL12 production induced by LPS,[4],inhibited
same,"TNF-alpha release induced by LPS, percent of control values","[5]; Cpn60.1 vs Cpn60.1 peptides, FIG. 21",suppress
same,concentration of maximum inhibition of LPS-induced TNF-α secretion,"[5]; although not significant, FIG. 18",1 ng/mL
same,TNF-alpha secretion induced by the substance alone,[5]; no LPS,able to stimulate human monocytes to induce TNF-alpha secretion
same,LPS-induced TNF-alpha secretion in the presence of polymyxin-B,"[5]; polymyxin-B 5 μg/ml, FIG. 19",suppresses
same,LPS-induced TNF-alpha secretion,"[5]; pre-treatment 1 hour, then LPS (1 ng/ml) 24 hours, FIGS. 18, 20",suppresses; also recorded: inhibited TNF-alpha secretion at low doses
same,recruitment of total cells to the airways,[6],significantly inhibited
same,recruitment of total cells to the airways,[6]; listed as Cpn60,inhibited
same,recruitment of eosinophils to the airways,[6],significant reduction
same,recruitment of eosinophils to the airways,[6]; listed as Cpn60,inhibited
same,levels of IL-5 in BAL fluid,"[6]; mouse, in vivo",not significantly inhibited; also recorded: not caused by an interference with the production of IL-5
same,IL-12 response of TLR4KO spleen cells compared to wild type C57bl/6,[7],reduced response; also recorded: significantly refractory
same,IL12 production by dendritic cells,[8],produced IL12 in a dose-dependant manner; also recorded: induced the release of IL-12 in a dose dependent-manner
same,TNF-alpha secretion in the lungs,"LPS-treated mice; intranasal 1 μg/ml for 3 days, LPS 1 μg/ml, lavage 24 hours later, FIG. 24",not significantly attenuated
same,LPS-induced neutrophilia (neutrophils recovered from lavage),"LPS-treated mice; intranasal 1 μg/ml for 3 days, LPS 1 μg/ml, lavage at 24 hours, FIG. 24",reduced LPS-induced neutrophilia; also recorded: suppression in neutrophilia
same,neutrophil recruitment with the substance alone,"LPS-treated mice; no LPS, FIG. 23",No neutrophil recruitment
same,effect of polymyxin B pre-treatment on suppression of neutrophil recruitment,LPS-treated mice; polymyxin B (5 μg/ml),made no difference
same,IL-12 release,[9],induce IL-12 release
same,CFA-induced hyperalgesia (mechanical and thermal),CFA-treated rats,Neither dose of Cpn60.1 reduced CFA-induced hyperalgesia
same,IL-12 response of TLR2KO spleen cells,[10],refractory
